What was measured:
CD24^−Sca-1^−AEC2s = assay: 3D Matrigel organoid culture, colony-forming efficiency (CFE) of mouse AEC2s; format: cell-based
Description: Flow-sorted mouse CD24^−Sca-1^−AEC2s or human HTII-280^+AEC2s were cultured in Matrigel/medium (1:1) mixture in the presence of MLg2908 lung fibroblast cells (Barkauskas et al., 2013; Chen et al., 2012). 100 μl Matrigel/medium mix containing 3×10^3 type 2 cells and 2×10^5 MLg2908 cells were plated into each 0.4-μm Transwell insert of a 24-well plate. 400 μl of medium was added in the lower chambers. Medium was described previously (Chen et al., 2012). Matrigel was from BD Biosciences (catalog 354230). Fresh medium was changed every other day. Cultures were maintained in a humidified 37° C. and 5% CO2 incubator. Colonies were visualized with a Zeiss Axiovert40 inverted fluorescent microscope (Carl Zeiss AG, Oberkochen, Germany). The number of colonies with a diameter of ≥50 μm from each insert was counted, and the colony-forming efficiency (CFE) was determined by the number of colonies in each culture as a percentage of the number of input epithelial cells at day 12 after plating.
For culture with IL-6 protein or anti-IL-6, sorted type 2 cells were pretreated with IL-6 protein or anti-IL-6 at room temperature for 30 minutes. Type 2 cells were then mixed with fibroblasts in the Matrigel/medium mixture and plated into Transwell inserts. The same concentration of IL-6 protein or IL-6 antibody was added into the Matrigel/medium mix and into the medium placed in the lower chambers.
Healon GV was purchased from Abbott Medical Optics (Abbot Park, Ill.). Pep-1 was synthesized by Sigma-Genosys and dissolved in DMSO to form a 100 μg/μl stock solution as described previously (Jiang et al., 2005; Mummert et al., 2000). For 3D matrigel culture, sorted type 2 cells were pretreated with Healon (200 μg/ml) or pep-1 (125 μg/ml) at room temperature for 30 minutes. Higher concentrations of Healon (400 μg/ml, 600 μg/ml, and 800 μg/ml) were used for 3D matrigel culture of IPF AEC2s. Cells were then mixed with fibroblasts in Matrigel/medium mix and plated into Transwell inserts. The same concentrations of Healon or Pep-1 were added into the Matrigel/medium mix and medium that were placed in the lower chambers.
The cell-permeable STAT3 inhibitor S3I-201 was purchased from Santa Cruz Biotechnology (Dallas, Tex.) and dissolved in DMSO to form stock solution of 10 mg/ml (MW 365.36). The dose for treating type 2 cells in colony-formation assays was 50 μM and 100 μM. The same amounts of DMSO were added into the control wells. Flow-sorted type 2 cells were pretreated with the STAT3 inhibitor at 50 μM or 100 μM concentrations, and with IL-6 protein (100 ng/ml), at room temperature for 30 minutes. Cells were then mixed with fibroblasts in Matrigel/medium mix and plated into Transwell inserts. […]

[1] = test system: bleomycin-induced lung injury; assay: Bleomycin lung injury model with rIL-6 or anti-IL-6 administration; format: in vivo, mouse
Source text: Mice. Tlr4^−/− and Tlr2^−/− mice were obtained (Takeuchi et al., 1999; Kawai et al., 1999), Has2^flox/+ mice were generated using the Cre-loxP system (Li et al., 2011; Matsumoto et al., 2009), and SFTPC-Cre mice, SFTPC-CreER mice, SFTPC-GFP mice, and Rosa-Tomato^flox/flox mice were generated (Barkauskas et al., 2013; Chen et al., 2012; Eblaghie et al., 2006). All mice were backcrossed on the C57Bl/6J background for more than six generations. […] Has2^flox/flox homozygous mice were crossed with SFTPC-Cre^+ mice to generate SFTPC-Cre^+;Has2^flox/flox mice. Rosa-Tomato^flox/flox mice were crossed with SFTPC-CreER mice to generate SFTPC-CreER^+;Rosa-Tomato^flox/flox mice. Animals were randomly assigned to treatment groups, and they were age- and sex-matched. 8- to 12-week-old mice of both sexes (male:female ratio ˜1:1) were used in the bleomycin lung injury model. Animals for experiments were selected by genotype, and no blinding was performed.
Bleomycin instillation and BAL procedures were described previously (Dong et al., 2015; Lovgren et al., 2011). Under anesthesia, the trachea was surgically exposed. 1.25-5 U/kg bleomycin (Hospira, Lake Forest, Ill.) in 25 μl PBS was instilled into the mouse trachea with a 25-G needle inserted between the cartilaginous rings of the trachea. Control animals received saline alone. The tracheostomy site was sutured, and the animals were allowed to recover. Mice were euthanized at different time points, and lung tissue and BAL fluid were collected for experiments. 0.8-ml aliquots of PBS were used for lavage. Cell-free BAL fluid was stored in a −80° C. freezer for cytokine measurement.
Collagen contents in mouse lungs were measured using a conventional hydroxyproline method (Jiang et al., 2004). Lung tissues were vacuum-dried and hydrolyzed with 6 N hydrochloride acid at 120° C. overnight. Hydroxyproline content was expressed as ‘μg per lung’, unless specified otherwise. The ability of the assay to completely hydrolyze and recover hydroxyproline from collagen was confirmed using samples containing known amounts of purified collagen.
(§1) Recombinant mouse IL-6 protein (Catalog 406-ML/CF, R&D Systems) was supplied in 50 mM sodium acetate and 1 mM EDTA and was diluted (1:5 or more depending on the stock concentration) in sterile PBS, and 2 μg per mouse in 50 μl was injected intramuscularly at 1 day before and at 1 day and 3 days after bleomycin instillation. Control buffer was made of the same volume of 50 mM sodium acetate and 1 mM EDTA solution and PBS. Mouse anti-IL-6 (MAB406, Clone #MP5-20F3, R&D Systems) or control IgG was reconstituted with sterile PBS. 250 μg per mouse in 250 μl sterile PBS was injected intraperitoneally to mice at 1 day before and at 1 day and 3 days after bleomycin instillation. Recombinant human IL-6 protein (Catalog 206-IL-010, R&D Systems) was reconstituted with sterile PBS containing 0.1% BSA. 200 ng/ml was used for organoid culture of human AEC2s.
Single-cell suspensions from mouse lungs were isolated as described (Chen et al., 2012). Mouse lungs were perfused with 5 ml PBS and digested with elastase (4 U/ml; Worthington Biochemical Corporation) and DNase I (100 U/ml; Sigma) to obtain single-cell suspensions for flow cytometry. Primary antibodies to CD31, CD34, CD45, Sca-1, and CD24, and secondary antibody anti-streptavidin were all from eBioscience (San Diego, Calif.). Mouse anti-EpCAM (G8.8, catalog 118215) and anti-Ki67 (catalog 652403) were from BioLegend (San Diego, Calif.). 7-AAD was from BD Biosciences (San Diego, Calif.).
The procedures of staining the cells for flow cytometry and data analysis were described previously (Chen et al., 2012; Liang et al., 2012). In brief, cells were resuspended in Hank's balanced saline solution supplemented with 2% FBS (FBS), 10 mM HEPES, 0.1 mM EDTA, 100 IU/ml penicillin, 100 μg/ml streptomycin (HBSS+ buffer). […]

human HTII-280^+AEC2s = assay: 3D matrigel culture, colony-forming efficiency (CFE) of human AEC2s; format: cell-based; details: AEC2s sorted from diseased (IPF) lung; rIL-6 200 ng/ml vs medium without exogenous IL-6; FIG. 13H
Description: as §1
Single-cell suspensions from human lungs were isolated as described (Barkauskas et al., 2013). The procedures of staining the cells for flow cytometry and data analysis were described previously (Barkauskas et al., 2013; Liang et al., 2012). […] Flow cytometry was performed using a FACSCanto II flow cytometer and FACSAria III sorter (BD Immunocytometry Systems, San Jose, Calif.) and analyzed using Flow Jo 9.6.4 software (Tree Star, Ashland, Oreg.). […]

[2] = bleomycin-treated Tlr4^−/− mice, rIL-6 vs control buffer, FIG. 10G

Cc1ccc(S(=O)(=O)OCC(=O)Nc2ccc(C(=O)O)c(O)c2)cc1 [S3I-201, reference compound]
rIL6-promoted colony formation of CD24^−Sca-1^−AEC2s (CD24^−Sca-1^−AEC2s; STAT3 inhibitor 50 μM or 100 μM with IL-6 protein 100 ng/ml, FIG. 11C): abolished

B1: rIL-6: Recombinant mouse IL-6 protein (Catalog 406-ML/CF, R&D Systems), used for mouse AEC2s and in mice (protein, UniProt P08505 25-211, looked up)
Interleukin-6: FPTSQVRRGDFTEDTTPNRPVYTTSQVGGLITHVLWEIVEMRKELCNGNSDCMNNDDALAENNLKLPEIQRNDGCYQTGYNQEICLLKISSGLLEYHSYLEYMKNNLKDNKKDKARVLQRDTETLIHIFNQEVKDLHKIVLPTPISNALLTDKLESQKEWLRTKTIQFILKSLEEFLKVTLRSTRQT
CFEs of CD24^−Sca-1^−AEC2s (CD24^−Sca-1^−AEC2s; AEC2s from bleomycin-treated SFTPC-Cre;Has2^flox/flox mice, rIL-6 100 ng/ml, FIG. 10F): promoted
CFEs of CD24^−Sca-1^−AEC2s (CD24^−Sca-1^−AEC2s; AEC2s from bleomycin-treated Tlr4^−/− mice, rIL-6 100 ng/ml, FIG. 10E): promoted
CFEs of CD24^−Sca-1^−AEC2s (CD24^−Sca-1^−AEC2s; AEC2s from bleomycin-treated WT mice, dose-dependent, vs control IgG or medium, FIGS. 10C-D): increased
hydroxyproline content in the lungs ([1]; Tlr4^−/− mice, bleomycin and rIL-6 vs bleomycin alone, FIG. 10H): lower
AEC2 apoptosis ([1]; bleomycin day 7 Tlr4^−/− mice, rIL-6 vs buffer, FIG. 11D): did not affect
inflammatory cell infiltration (BAL cell counts) ([1]; bleomycin day 7 Tlr4^−/− mice, rIL-6 vs buffer, FIG. 11E): did not affect
hydroxyproline content in the lungs ([1]; bleomycin-injured SFTPC-Cre;Has2^flox/flox mice, rIL-6 vs buffer, FIG. 10I): lower hydroxyproline content
survival ([1]; bleomycin-injured Tlr4^−/− mice, rIL-6 vs buffer, 21 days, FIG. 11F): increased survival
survival / mortality ([1]; bleomycin-injured WT mice, anti-IL-6 250 μg per mouse i.p. vs control IgG (FIG. 11G), rIL-6 vs bleomycin alone (data not shown)): did not alter
hydroxyproline levels ([1]; bleomycin-injured WT mice, anti-IL-6 vs control IgG, rIL-6 vs bleomycin alone, data not shown): did not alter
recovery of CD24^−Sca-1^−AEC2s ([1]; bleomycin-treated Tlr4^−/− mice, rIL-6 2 μg per mouse i.m. day −1, 1, 3, vs control buffer, FIG. 10G): more recovery
Ki67 staining of CD24^−Sca-1^−AEC2s [1, 2]: greater Ki67 staining
concentration of total BALF proteins [1, 2]: lower concentration
CFEs of HTII-280^+AEC2s (human HTII-280^+AEC2s): markedly increased

Reference: patent US10973882B2, “Methods for reducing severity of pulmonary fibrosis” (CEDARS-SINAI MEDICAL CENTER, priority 2017, dated 2021)
